In patent US20110039770A1 (PHARMAGAP, published 2011):

How the values were obtained:
PKC-δ (purified isoform) = target: T1, PKC-δ (purified isoform); test: competitive ELISA, coated purified PKC-δ, vs anti-PKC δ (SC-213); PRE 50 µM
T1 construct: also called PKC-delta
Procedure: (§1) Greiner 96 well ELISA plates were coated with the appropriate PKC isoform diluted in PBSN (PBS with Calcium/Magnesium+0.05% Sodium azide w/w). 50 μL/well at 250 ng/mL was used. Control wells contained PBSN only. Plates were incubated overnight at 4° C.
(§2) The plates were washed 3 times with 200 μL of dH₂O per well, then 100 μL of blocking solution was added per well and the plate incubated for 1 h at 37° C. The washing steps with dH₂O were repeated and 50 μL of the appropriate PRE solution (PRE stock solution [20 mM in DMSO] diluted in PBSN) was added and the plate incubated for 1 h at room temperature.
(§3) 50 μL of 1:1000 dilution of Alkaline Phosphatase (AP) conjugated antibody (anti-rabbit for all except zeta, which was anti-goat) was then added and the plate incubated for 1 h at room temperature. Washing with dH₂O was then repeated. Finally, 100 μL of pNPP solution in pNPP buffer (2 mM MgCl₂, 100 mM Sodium bicarbonate in water, pH 9.8) was added to all wells and incubated for 8 minutes for α, βI, βII ε, and ζ, or for 15-20 mins for δ (until sufficient coloration is observed). The reaction was stopped by addition of Stop solution (2N NaOH) and the absorbance at 405 nm was read on a Galaxy Plate reader.

[1] = target: T2, PKC-βI (purified isoform) (Homo sapiens (Human), UniProt P05771 2-671); test: competitive ELISA, coated purified PKC-βI, vs anti-PKC βI (SC-209); PRE 50 µM
T2 construct: also called PKC-beta I; PKC beta 1
T2 sequence (P05771 2-671 limits assumed): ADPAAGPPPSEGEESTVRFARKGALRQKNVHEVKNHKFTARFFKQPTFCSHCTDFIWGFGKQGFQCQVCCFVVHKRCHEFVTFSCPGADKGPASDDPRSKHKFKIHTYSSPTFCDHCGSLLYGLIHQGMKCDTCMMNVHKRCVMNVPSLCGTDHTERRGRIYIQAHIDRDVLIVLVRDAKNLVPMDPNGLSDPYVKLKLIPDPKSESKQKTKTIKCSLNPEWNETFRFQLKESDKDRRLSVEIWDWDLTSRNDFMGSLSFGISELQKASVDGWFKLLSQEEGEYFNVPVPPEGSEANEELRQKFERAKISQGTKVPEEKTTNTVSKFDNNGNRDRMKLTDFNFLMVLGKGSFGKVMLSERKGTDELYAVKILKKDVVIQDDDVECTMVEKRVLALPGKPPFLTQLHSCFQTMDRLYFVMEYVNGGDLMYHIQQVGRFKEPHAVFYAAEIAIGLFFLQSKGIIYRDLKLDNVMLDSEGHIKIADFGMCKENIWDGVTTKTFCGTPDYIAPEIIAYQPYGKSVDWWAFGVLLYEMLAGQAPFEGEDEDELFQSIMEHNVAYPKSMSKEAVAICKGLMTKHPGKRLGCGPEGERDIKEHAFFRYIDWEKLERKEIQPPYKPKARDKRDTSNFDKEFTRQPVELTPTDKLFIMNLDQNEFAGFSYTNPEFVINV
Procedure: as §1, §2, §3

[2] = target: T3, PKC-ε (endogenous, IMR-32 lysate) (human, UniProt Q02156 1-737); test: WB competition Protocol B, IMR-32 extract, vs anti-PKC-ε Ab; PKC-ε Band 2; 20 µg peptide
T3 construct: Band 1 and Band 2 (alternate splicing variants, not identified further) are kept under one molecule; the band is named in the assay field of each row; also called PKC-epsilon; PKC-ε Band 1
T3 sequence (looked up): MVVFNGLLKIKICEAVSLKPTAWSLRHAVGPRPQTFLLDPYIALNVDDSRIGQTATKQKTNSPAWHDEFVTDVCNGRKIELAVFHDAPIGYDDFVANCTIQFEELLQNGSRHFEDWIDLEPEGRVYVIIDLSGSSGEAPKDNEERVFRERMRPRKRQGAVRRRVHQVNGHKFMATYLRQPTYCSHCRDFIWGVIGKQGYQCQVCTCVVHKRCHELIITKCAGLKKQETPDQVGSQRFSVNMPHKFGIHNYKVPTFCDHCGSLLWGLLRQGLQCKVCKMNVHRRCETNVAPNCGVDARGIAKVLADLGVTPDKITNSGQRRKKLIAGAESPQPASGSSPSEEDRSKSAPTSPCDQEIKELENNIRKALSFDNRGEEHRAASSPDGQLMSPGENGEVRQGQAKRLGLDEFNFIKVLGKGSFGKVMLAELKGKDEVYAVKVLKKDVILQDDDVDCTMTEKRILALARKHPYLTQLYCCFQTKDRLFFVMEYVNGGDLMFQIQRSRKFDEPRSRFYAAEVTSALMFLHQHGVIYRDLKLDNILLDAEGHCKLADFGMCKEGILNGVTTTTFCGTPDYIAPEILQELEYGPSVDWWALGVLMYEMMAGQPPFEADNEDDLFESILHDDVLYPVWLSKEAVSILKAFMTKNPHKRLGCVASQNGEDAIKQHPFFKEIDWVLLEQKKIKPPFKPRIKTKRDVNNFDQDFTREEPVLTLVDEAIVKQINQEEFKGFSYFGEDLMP
Procedure: (§4) The ability of the peptides PRE 2 and PRE 3 (see Table 4) to interfere with the binding of a PKC-α-specific polyclonal antibody (Santa Cruz Biotechnology, Inc.) to PKC-α was determined using a modified version of the protocol outlined above in which the test peptide was added directly to the cell extract prior to electrophoresis at a concentration of either 5× or 15× the concentration of the protein applied to each well of the gel for the Western blots (20 μg).
(§5) Peptides PRE 2, PRE 3 and PRE 4 (see Table 4) were tested for their ability to interfere with the binding of isoform-specific polyclonal antibodies (Santa Cruz Biotechnology, Inc.) to […] using the general protocol described in Example 3. Two bands, representing alternate splicing variants of PKC-ε, were identified on the Western blot using this anti-PKC-ε antibody.

[3] = target: T3, PKC-ε (endogenous, IMR-32 lysate); test: WB competition Protocol B, IMR-32 extract, vs anti-PKC-ε Ab; PKC-ε Band 1; 50 µg peptide
Procedure: as §4, §5

PKC-α (purified isoform) = target: T4, PKC-α (purified isoform) (Homo sapiens (Human), UniProt P17252 2-672); test: competitive ELISA, coated purified PKC-α, vs anti-PKC α (SC-208); PRE 100 µM
T4 construct: also called purified PKC-alpha; commercially purified PKC-alpha
Procedure: as §1, §2, §3

[4] = target: T5, PKC-βII (purified isoform) (Homo sapiens (Human), UniProt P05771 2-621); test: competitive ELISA, coated purified PKC-βII, vs anti-PKC βII (SC-210); PRE 100 µM
T5 construct: also called PKC-beta II; PKC beta 2
T5 sequence (P05771 other isoform, or with tags, fused parts or gaps limits assumed): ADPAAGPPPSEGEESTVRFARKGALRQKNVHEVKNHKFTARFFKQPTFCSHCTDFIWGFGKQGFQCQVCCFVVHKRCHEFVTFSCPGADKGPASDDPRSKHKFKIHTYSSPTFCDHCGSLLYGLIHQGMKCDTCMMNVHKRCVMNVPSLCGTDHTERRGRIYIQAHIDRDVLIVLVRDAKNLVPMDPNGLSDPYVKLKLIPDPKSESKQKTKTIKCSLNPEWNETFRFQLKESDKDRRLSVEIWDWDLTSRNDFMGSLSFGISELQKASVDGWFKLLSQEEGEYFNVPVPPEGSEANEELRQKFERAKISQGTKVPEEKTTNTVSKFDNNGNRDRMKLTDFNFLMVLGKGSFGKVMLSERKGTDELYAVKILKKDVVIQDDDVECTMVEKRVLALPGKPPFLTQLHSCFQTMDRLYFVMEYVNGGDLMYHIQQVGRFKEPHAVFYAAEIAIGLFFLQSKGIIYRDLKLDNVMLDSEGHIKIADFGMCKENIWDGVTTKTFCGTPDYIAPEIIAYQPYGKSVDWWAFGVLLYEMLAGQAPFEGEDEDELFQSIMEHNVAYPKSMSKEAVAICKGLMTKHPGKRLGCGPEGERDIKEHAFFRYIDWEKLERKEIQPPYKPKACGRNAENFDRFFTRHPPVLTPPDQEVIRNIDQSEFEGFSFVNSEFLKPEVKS
Procedure: as §1, §2, §3

[5] = target: T3, PKC-ε (endogenous, IMR-32 lysate); test: WB competition Protocol B, IMR-32 extract, vs anti-PKC-ε Ab; PKC-ε Band 1; 20 µg peptide
Procedure: as §4, §5

T1 sequence (Q05655 whole entry, stated change not applied, canonical isoform): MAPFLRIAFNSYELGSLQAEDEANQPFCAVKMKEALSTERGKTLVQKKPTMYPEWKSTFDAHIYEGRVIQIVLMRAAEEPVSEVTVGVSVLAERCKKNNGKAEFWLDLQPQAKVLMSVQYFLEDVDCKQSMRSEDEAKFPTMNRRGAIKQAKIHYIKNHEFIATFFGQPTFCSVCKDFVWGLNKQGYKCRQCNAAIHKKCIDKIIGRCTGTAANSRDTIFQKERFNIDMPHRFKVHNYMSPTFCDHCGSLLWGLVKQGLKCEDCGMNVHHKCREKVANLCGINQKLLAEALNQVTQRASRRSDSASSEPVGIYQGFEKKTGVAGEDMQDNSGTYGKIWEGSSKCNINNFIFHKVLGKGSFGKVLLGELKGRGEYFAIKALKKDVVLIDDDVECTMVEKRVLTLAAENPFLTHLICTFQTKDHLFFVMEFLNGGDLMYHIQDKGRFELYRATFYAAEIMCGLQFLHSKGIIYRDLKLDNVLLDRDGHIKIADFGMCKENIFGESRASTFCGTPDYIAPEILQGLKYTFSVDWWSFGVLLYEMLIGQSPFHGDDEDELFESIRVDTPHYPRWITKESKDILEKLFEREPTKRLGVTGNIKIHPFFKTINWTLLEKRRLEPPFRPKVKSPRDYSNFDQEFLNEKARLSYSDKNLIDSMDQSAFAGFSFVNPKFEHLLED

- relative binding capacity (100-%n, DMSO subtracted) (PKC-δ (purified isoform)): 29.2%
- relative binding capacity (100-%n, DMSO subtracted) [1]: 6.02%
- Band Intensity [2]: 153
- Inhibition (%) [2]: 46.6%
- Relative Intensity (%) [2]: 53.3%
- Band Intensity [3]: 0
- Inhibition (%) [3]: 100%
- Relative Intensity (%) [3]: 0%
- relative binding capacity (100-%n, DMSO subtracted) (PKC-α (purified isoform)): 21.9%
- relative binding capacity (100-%n, DMSO subtracted) [4]: 13.5%
- Band Intensity [5]: 184
- Inhibition (%) [5]: 42.9%
- Relative Intensity (%) [5]: 57.1%
B1: PRE 4 (peptide)
peptide: Ac-KDAQNLIGISI-NH2
notes: also called peptide PRE 4
